Assay [1] deals with T1, mouse LTBP3-proTGFβ1 complex (mouse, UniProt Q61810 41-1245; P04202 30-390, limits assumed).
T1 construct: Exemplary entries; also called Mo LTBP3-proTGFβ1; Murine LTBP3 proTGFb1
The assay is described as follows: SPR Biacore 8K, Fab over captured antigen, Rmax fixed. The method, then: (§1) These experiments were performed using the Biacore 8K using the method “multi-cycle kinetics/affinity using Biotin CAPture kit.”
(§2) Data collection rate was set to 10 Hz and the Biotin CAPture step was performed for 300 seconds with a flow rate of 2 μL/minute. The Biotin CAPture reagent was used after a 1:5 dilution in 1× Biacore running buffer. Biotinylated ligands (the various complexes of TGFβ1) were utilized at a concentration of 10 nM and were immobilized to the sensor chip for 180 seconds with a flow rate of 10 μL/minute. […] Analyte contact time was 120 seconds and the dissociation time was 900 seconds. The regeneration cycle utilized was 120 seconds with a flow rate of 10 μL/minute.
(§3) The evaluation method used was “multi-cycle affinity using capture” and a 1:1 binding model was used. […] Global fits were utilized for every KD determination.
In general terms: In SPR one partner is held on a chip, and binding of the other changes the refractive index at the surface.

Assay [2] deals with T2, mouse LTBP1-proTGFβ1 complex (mouse, UniProt Q8CG19 339-1712; P04202 30-390).
T2 construct: Exemplary entries; In the cell assays expressed from mouse LTBP1S and mouse proTGFb1 plasmids in LN229 cells; also called Mo LTBP1-proTGFβ1; MuLTBP1-ProTGFb1
The assay is described as above. The method, then: as §1, §2, §3

For assay [3], the target named is T3, human LTBP1-proTGFβ1 complex (human, UniProt Q14766 347-1721; P01137 30-390).
T3 construct: Large latent complex: one presenting molecule disulfide-linked to a proTGFβ1 dimer; also called Hu LTBP1-proTGFβ1; huLTBP1 proTGFβ1
Described as above. Here is the method: as §1, §2, §3

The target of assay [4] is T4, human LRRC33-proTGFβ1 complex (human, UniProt Q86YC3 19-650; P01137 30-390, limits assumed).
T4 construct: Exemplary entries; also called huLRRC33 proTGFb1; HuLRRC33-ProTGFb1
T4 sequence (Q86YC3 19-650 limits assumed, chain 1 of 2): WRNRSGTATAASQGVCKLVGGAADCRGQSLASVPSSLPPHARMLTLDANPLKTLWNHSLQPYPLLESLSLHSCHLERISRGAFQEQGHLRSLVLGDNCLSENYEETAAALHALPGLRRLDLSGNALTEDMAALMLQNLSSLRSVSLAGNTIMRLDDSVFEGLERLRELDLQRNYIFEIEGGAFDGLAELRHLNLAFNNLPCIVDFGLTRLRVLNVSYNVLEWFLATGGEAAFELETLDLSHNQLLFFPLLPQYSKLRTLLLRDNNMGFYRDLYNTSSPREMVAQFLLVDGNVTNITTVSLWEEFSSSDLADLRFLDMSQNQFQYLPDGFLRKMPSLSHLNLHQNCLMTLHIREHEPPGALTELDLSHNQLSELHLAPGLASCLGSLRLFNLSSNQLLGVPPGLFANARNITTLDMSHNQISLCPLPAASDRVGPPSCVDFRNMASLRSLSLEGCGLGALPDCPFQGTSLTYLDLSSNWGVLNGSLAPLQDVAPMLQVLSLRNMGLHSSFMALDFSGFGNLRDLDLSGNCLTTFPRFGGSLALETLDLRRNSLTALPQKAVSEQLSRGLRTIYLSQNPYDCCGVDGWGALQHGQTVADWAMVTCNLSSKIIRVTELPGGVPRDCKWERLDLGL
T4 sequence (P01137 30-390 limits assumed, chain 2 of 2): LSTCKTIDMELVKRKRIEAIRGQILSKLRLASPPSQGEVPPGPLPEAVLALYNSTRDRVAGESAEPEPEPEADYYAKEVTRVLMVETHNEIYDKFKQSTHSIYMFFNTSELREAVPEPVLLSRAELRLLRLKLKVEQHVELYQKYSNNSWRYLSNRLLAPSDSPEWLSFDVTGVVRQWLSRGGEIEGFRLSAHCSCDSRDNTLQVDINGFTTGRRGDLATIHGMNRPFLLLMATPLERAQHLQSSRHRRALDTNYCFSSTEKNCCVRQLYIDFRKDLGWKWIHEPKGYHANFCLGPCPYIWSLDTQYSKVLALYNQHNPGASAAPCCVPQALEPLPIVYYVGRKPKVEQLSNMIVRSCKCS
The assay is described as above. Here is the method:
as §1, §2, §3

Assay [5] addresses T5, human LTBP3-proTGFβ1 complex (human, UniProt Q9NS15 44-1303; P01137 30-390, limits assumed).
T5 construct: Exemplary entries; also called Hu LTBP3-proTGFβ1; huLTBP3 proTGFb1
Described as above. Here is the method:
as §1, §2, §3

The target of assay [6] is T6, human GARP-proTGFβ1 complex (human, UniProt Q14392 18-627; P01137 30-390, limits assumed).
T6 construct: Exemplary entries; also called Hu GARP-proTGFβ1; huGARP proTGFb1
T6 sequence (Q14392 18-627 limits assumed, chain 1 of 2): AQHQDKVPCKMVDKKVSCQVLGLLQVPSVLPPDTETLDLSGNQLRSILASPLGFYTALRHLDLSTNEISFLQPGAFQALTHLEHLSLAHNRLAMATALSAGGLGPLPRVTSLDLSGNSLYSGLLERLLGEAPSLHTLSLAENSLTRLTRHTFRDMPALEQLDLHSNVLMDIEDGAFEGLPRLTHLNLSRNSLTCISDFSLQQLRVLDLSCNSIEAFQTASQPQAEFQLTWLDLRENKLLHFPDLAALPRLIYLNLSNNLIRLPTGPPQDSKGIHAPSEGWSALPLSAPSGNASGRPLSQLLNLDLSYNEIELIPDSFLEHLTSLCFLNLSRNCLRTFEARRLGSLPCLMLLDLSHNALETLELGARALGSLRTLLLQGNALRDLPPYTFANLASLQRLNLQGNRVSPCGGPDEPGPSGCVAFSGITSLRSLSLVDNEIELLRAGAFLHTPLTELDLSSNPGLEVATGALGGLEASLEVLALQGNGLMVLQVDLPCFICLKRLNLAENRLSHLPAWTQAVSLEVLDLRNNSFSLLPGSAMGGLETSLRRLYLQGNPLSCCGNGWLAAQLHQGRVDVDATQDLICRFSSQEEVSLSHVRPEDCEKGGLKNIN
T6 sequence (P01137 30-390 limits assumed, chain 2 of 2): as the sequence (P01137 30-390 limits assumed, chain 2 of 2) above
The description is as above. Here is the method: as §1, §2, §3

The target in assay [7] is T7, mouse LRRC33-proTGFβ1 complex (mouse, UniProt Q8BMT4 20-651, limits assumed).
T7 construct: also called MuLRRC33-ProTGFb1; Mu LRRC33-ProTGFβ1
The description is as above. The method, then:
as §1, §2, §3

The target in assay [8] is T8, mouse GARP-proTGFβ1 complex (mouse, UniProt G3XA59 18-628; P04202 30-390, limits assumed).
T8 construct: Exemplary entries; also called MuGARP-ProTGFb1; Mu GARP-ProTGFβ1
The description is as above. The method, then: as §1, §2, §3

For assay [9], the target named is T5, human LTBP3-proTGFβ1 complex. The assay is described as follows: SPR Biacore 8K, Fab over captured antigen. Summed up: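 Biotinylated antigen complexes captured on a Biotin CAPture chip (10 nM, ~200 RU), with Fab fragments injected as analyte by multi-cycle kinetics and regeneration between cycles. Runs in HBS-EP+ pH 7.4, 0 nM analyte as reference; ka, kd and KD from a global 1:1 binding fit.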

For assay [10], the target named is T3, human LTBP1-proTGFβ1 complex. The assay is described as follows: SPR Biacore 8K, Fab over captured antigen; mean of 5. The method, then:
(§4) A Biacore 8K system was employed to determine the monovalent binding affinity and the kinetic parameters for antigen binding of test antibodies. Association and dissociation kinetics of Fab fragments SR-AB42-HuFab, SR-AB63-HuFab and SR-AB43-HuFab to antigen complexes were measured, and resulting ka, kd and KD are provided below. Briefly, the binding kinetics were evaluated by surface plasmon resonance using Biacore 8K (GE Healthcare). Biotinylated capture antigens were immobilized to the chip (10 nM, ˜200 RU loading). A Biotin CAPture sensor chip was used to capture the biotinylated antigens. […] 0 nM was used as a reference. […] 0 nM was used as a reference. Multi-cycle kinetics was employed where each analyte concentration was injected in a separate cycle and the sensor chip surface was regenerated after each cycle. A11 the assays were carried out in freshly prepared 1× HBS-EP+ buffer (10 mM HEPES, 150 mM NaCl, 3 mM EDTA, 0.05% Tween20, pH 7.4). Data were fit globally to a 1:1 binding model to obtain the kinetic parameters. The sensorgram for 0 nM analyte concentration was used as reference.

In assay [11] the target is T1, mouse LTBP3-proTGFβ1 complex. The assay is described as follows: SPR Biacore 8K, monovalent Fab. Here is the method:
as §2, §3
(§5) The monovalent half-binding-time (T^{1/2}) value was at least 45 minutes for each of hLTBP1-proTGFβ1 and hLTBP3-proTGFβ1 complexes. The monovalent T^{1/2} value was less than 5 minutes for each of hGARP-proTGFβ1 and hLRRC33-proTGFβ1 complexes, as measured by SPR.

For assay [12], the target named is T2, mouse LTBP1-proTGFβ1 complex. The assay is described as follows: SPR Biacore 8K, monovalent Fab. The method, then:
as §2, §3, §5

Assay [13] has as its target T3, human LTBP1-proTGFβ1 complex. Briefly: SPR Biacore 8K, monovalent Fab. Here is the method: as §2, §3, §5
The target of assay [14] is T4, human LRRC33-proTGFβ1 complex. The assay is described as follows: SPR Biacore 8K, monovalent Fab. The method, then: as §2, §3, §5
Assay [15] deals with T5, human LTBP3-proTGFβ1 complex. The assay is described as follows: SPR Biacore 8K, monovalent Fab. Here is the method:
as §2, §3, §5

Assay [16] concerns the target T6, human GARP-proTGFβ1 complex. The assay is described as follows: SPR Biacore 8K, monovalent Fab. The method, then: as §2, §3, §5
The target in assay [17] is T7, mouse LRRC33-proTGFβ1 complex. The assay is described as follows: SPR Biacore 8K, monovalent Fab. Here is the method:
as §2, §3, §5

Assay [18] deals with T8, mouse GARP-proTGFβ1 complex. The assay is described as follows: SPR Biacore 8K, monovalent Fab. The method, then: as §2, §3, §5
For assay [19], the target named is T4, human LRRC33-proTGFβ1 complex. Briefly: SPR Biacore 8K, Fab up to 100 nM over captured antigen. The method, then: as §4
Assay [20] has as its target T6, human GARP-proTGFβ1 complex. The assay is described as above. The method, then:
as §4

The target of assay [21] is T1, mouse LTBP3-proTGFβ1 complex. Briefly: SPR Biacore 8K, Fab over captured antigen; mean of 2. The method, then:
as §4

Assay [22] concerns the target T2, mouse LTBP1-proTGFβ1 complex. Briefly: cell-based or functional assay.
Assay [23] concerns the target LTBP-proTGFβ1: transfected human proTGFβ1 presented by endogenous LTBP1/3 of LN229 cells (human). Briefly: cell-based or functional assay.
Assay [24] addresses T1, mouse LTBP3-proTGFβ1 complex. The assay is described as follows: Octet BLI, IgG captured. In a few lines: (§6)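 IgG captured on the Octet biosensor, with complex antigen associating for 3 min and dissociating for 5 min in kinetics buffer. KD was fitted with a 1:1 binding model for each antibody–antigen pair.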
(Biolayer interferometry detects binding as a change in optical thickness at a sensor tip.)

Assay [25] concerns the target T2, mouse LTBP1-proTGFβ1 complex. Briefly: Octet BLI, IgG captured. In a few lines:
as §6

For assay [26], the target named is T3, human LTBP1-proTGFβ1 complex. Briefly: Octet BLI, IgG captured. In a few lines:
as §6

The target of assay [27] is T5, human LTBP3-proTGFβ1 complex. Briefly: Octet BLI, IgG captured. Summed up: as §6
Assay [28] concerns the target T6, human GARP-proTGFβ1 complex. The assay is described as follows: Octet BLI (N.B. = non-binder under conditions of this assay). Here is the method: Binding affinities of the optimized antibodies were measured by Octet against human LTBP1-proTGFβ1, human LTBP3-proTGFβ1, mouse LTBP1-proTGFβ1, mouse LTBP3-proTGFβ1, and GARP-proTGFβ1 complexes, essentially as described in Example 6. […] The antigens were allowed to associate for 3 minutes followed by a 5-minute dissociation. Kinetics buffer (ForteBio®) was used throughout the experiment, and KD was determined using a 1:1 fitting model for each antibody antigen pair.
Table 9 presents the binding profile and affinity data for the indicated LTBP complex-specific antibodies (IgG1-agly) identified from the light chain optimization cycle 3, determined by Octet.

T5 sequence (Q9NS15 44-1303 limits assumed, chain 1 of 2): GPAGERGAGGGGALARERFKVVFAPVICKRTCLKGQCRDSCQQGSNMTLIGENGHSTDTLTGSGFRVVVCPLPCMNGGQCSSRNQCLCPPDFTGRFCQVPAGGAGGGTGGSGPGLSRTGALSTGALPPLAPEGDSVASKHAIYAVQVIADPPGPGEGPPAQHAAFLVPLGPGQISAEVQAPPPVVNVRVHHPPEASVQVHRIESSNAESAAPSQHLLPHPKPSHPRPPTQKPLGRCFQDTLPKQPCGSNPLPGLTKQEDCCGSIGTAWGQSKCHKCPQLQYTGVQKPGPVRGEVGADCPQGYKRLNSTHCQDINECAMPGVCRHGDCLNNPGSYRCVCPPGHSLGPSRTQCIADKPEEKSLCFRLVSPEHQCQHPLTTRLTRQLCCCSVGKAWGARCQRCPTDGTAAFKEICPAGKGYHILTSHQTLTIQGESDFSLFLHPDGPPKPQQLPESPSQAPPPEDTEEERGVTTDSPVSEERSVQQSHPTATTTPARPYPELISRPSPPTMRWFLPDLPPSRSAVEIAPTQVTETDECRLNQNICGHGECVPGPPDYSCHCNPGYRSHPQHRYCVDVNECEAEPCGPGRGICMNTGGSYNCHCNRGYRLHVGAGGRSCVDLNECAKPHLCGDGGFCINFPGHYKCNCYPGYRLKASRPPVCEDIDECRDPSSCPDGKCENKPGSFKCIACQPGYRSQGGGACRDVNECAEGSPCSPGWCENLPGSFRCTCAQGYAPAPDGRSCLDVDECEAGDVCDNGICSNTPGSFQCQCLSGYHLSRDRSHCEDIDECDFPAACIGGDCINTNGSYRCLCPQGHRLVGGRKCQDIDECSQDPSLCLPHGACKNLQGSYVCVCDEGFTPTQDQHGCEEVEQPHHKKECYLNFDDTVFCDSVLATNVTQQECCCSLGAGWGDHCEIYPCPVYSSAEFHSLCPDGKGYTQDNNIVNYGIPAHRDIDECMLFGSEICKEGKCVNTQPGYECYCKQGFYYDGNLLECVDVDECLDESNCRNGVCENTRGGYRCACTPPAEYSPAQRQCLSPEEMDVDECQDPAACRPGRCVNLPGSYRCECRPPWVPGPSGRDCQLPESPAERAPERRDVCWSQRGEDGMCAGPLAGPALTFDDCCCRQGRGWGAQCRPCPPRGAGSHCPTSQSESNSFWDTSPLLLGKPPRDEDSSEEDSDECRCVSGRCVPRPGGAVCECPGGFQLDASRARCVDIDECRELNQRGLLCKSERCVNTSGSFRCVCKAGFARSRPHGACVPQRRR
T5 sequence (P01137 30-390 limits assumed, chain 2 of 2): as the sequence (P01137 30-390 limits assumed, chain 2 of 2) above
T1 sequence (Q61810 other isoform, or with tags, fused parts or gaps limits assumed, chain 1 of 2): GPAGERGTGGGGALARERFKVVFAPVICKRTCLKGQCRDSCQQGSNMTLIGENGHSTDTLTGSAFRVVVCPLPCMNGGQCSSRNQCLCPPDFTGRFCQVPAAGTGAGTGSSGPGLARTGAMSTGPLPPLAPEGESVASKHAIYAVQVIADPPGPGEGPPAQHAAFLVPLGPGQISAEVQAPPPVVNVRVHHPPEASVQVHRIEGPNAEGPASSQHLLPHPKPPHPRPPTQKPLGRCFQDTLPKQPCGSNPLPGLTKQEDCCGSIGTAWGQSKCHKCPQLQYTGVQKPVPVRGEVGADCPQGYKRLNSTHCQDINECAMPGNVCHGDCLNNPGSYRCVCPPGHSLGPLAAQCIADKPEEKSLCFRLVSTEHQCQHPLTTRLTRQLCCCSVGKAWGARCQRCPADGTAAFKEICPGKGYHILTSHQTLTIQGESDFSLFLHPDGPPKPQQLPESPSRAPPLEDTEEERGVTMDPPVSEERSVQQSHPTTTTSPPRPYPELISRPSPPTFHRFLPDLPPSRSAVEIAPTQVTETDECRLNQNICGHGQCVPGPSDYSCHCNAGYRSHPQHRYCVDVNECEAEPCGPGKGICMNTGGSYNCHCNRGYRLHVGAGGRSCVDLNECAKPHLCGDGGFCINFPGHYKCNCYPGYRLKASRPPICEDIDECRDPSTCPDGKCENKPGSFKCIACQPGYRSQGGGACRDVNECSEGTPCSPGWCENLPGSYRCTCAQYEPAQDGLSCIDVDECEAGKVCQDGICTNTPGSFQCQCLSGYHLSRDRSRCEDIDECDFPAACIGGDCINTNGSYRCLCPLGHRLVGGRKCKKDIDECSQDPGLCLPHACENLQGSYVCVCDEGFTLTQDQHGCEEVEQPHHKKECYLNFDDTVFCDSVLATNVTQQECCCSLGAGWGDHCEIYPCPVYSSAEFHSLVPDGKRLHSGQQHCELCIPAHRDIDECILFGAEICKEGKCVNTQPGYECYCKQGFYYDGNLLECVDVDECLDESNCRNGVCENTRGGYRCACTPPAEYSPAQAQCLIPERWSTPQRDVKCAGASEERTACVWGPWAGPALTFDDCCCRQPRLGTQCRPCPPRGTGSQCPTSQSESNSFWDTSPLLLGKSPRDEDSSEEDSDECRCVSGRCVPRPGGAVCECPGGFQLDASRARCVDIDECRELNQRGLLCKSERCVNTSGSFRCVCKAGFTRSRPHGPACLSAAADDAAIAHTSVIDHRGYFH
T1 sequence (P04202 30-390 limits assumed, chain 2 of 2): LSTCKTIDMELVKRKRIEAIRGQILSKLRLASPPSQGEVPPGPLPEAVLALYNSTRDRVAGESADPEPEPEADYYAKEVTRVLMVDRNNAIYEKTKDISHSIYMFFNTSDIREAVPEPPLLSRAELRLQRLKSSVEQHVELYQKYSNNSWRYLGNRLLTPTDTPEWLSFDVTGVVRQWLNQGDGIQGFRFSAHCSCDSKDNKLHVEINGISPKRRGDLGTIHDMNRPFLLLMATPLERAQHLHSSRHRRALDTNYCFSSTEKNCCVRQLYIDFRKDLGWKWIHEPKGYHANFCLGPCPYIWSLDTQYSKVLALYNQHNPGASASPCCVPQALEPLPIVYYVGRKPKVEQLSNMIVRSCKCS
Chain of LTBP-proTGFβ1: transfected human proTGFβ1 presented by endogenous LTBP1/3 of LN229 cells (human) (P01137 30-390): as the sequence (P01137 30-390 limits assumed, chain 2 of 2) above

B1: SR-AB42-HuFab (Fab, V domains shown)
VH: QVQLVESGGGVVQPGRSLRLSCAASGFTFRSYVMHWVRQAPGKGLEWVAVISHEGSLKYYADSVKGRFTISRDNSKNTLYLQMNSLRAEDTAVYYCARPRIAARRGGFGYWGQGTLVTVSS
VL: NFMLTQPHSVSESPGKTVTISCTRSSGNIDNNYVQWYQQRPGSSPTTVIYEDNQRPSGVPDRFSGSIDSSSNSASLTISGLKTEDEADYYCQSYDYDTQGVVFGGGTKLTVL
notes: Human Fab; also called SR-AB42 Fab; LTBP-SR-AB42 HuFab
Take B1: the Kd (in general, the free concentration of one partner at which half of the binding sites on the other are occupied at equilibrium, for simple one-to-one binding) came to 680 pM in [1]; 611 pM in assay [2]; 381 pM in assay [3]; 134000 pM in assay [4]; 570 pM in assay [5]; 145000 pM in [6]. In addition, the Kd in [7] was found to be 110000 pM; in [8] it was 29100 pM; in assay [9], 350 pM; in [10], 194 pM; in [11], 680 pM; in assay [12], 600 pM. For the same molecule, the Kd amounted to 134000 pM in [14]; 570 pM in assay [15]; 144000 pM in assay [16]; 110000 pM in assay [17]; 29000 pM in assay [18]; 43600 pM in [19]. Also, the results for the Kd in assay [20] and in assay [21] were 38900 pM and 2660 pM, respectively. Also, the koff – broadly, the rate constant with which the complex falls apart – in assay [9] was determined as 0.000142 s⁻¹; in assay [10], 0.000105 s⁻¹; in assay [19], 0.00353 s⁻¹; in assay [20], 0.00604 s⁻¹. Further, the kon (in general, the rate constant with which the complex forms) in assay [9] is 405000 M⁻¹ s⁻¹; in assay [10], 543000 M⁻¹ s⁻¹; in [19], 80900 M⁻¹ s⁻¹; in [20], 155000 M⁻¹ s⁻¹. Further, the “T1/2 Binding” value worked out at 72 min in assay [11]; 66 min in assay [12]; 102 min in assay [13]; 4.3 min in [14]; 102 min in [15]; 1.9 min in assay [16]. Besides, the “T1/2 Binding” value in [17] was 7.4 min; in assay [18], 5.1 min.

B2: SR-AB43 (antibody, IgG1, V domains shown)
VH: QVQLVESGGGVVQPGRSLRLSCAASGFTFRSYVMHWVRQAPGKGLEWVAVISHEGSLKYYADSVKGRFTISRDNSKNTLYLQMNSLRAEDTAVYYCARPRIAARRGGFGYWGQGTLVTVSS
VL: NFMLTQPHSVSESPGKTVTISCTRSSGNIDYNYVQWYQQRPGSSPTTVIYEDNVRPSGVPDRFSGSIDSSSNSASLTISGLKTEDEADYYCQSYDSDNQRVVFGGGTKLTVL
notes: Cycle 3, lineage SR-AB23
With B2, the “IC50, mLTBP1 assay (CAGA12 luciferase)” value in assay [22] came out at 319 pM. Also, in assay [23], the “IC50, endogenous hLTBP assay (CAGA12 luciferase)” value was 1760 pM. Moreover, the Kd in assay [24] came out at 891 pM; in [25], 731 pM; in assay [26], 649 pM; in assay [27] it was 178 pM. The figures for the koff in assay [26] and in [27] were 0.000159 s⁻¹ and 6e-05 s⁻¹, respectively. The kon in assay [26] stood at 244000 M⁻¹ s⁻¹; in assay [27], 337000 M⁻¹ s⁻¹. The binding result in [28] is “no binding (tested: antigen 100 nM)”.

(Values after patent publication US20220064276A1 (SCHOLAR ROCK, published 2022).)
